Legend:
HeLa Kyoto [1] = experiment: thermal stability score vs G1/S (z-score of summed log2 fold changes over temperatures); higher = more thermally stable than in G1/S
HeLa Kyoto [2] = experiment: solubility change mitosis vs G1/S (difference of NP-40 vs SDS log2 ratios) (log2 ratio difference); higher = more soluble in mitosis
HeLa Kyoto [3] = experiment: solubility in G1/S (NP-40 vs SDS abundance) (log2 ratio); higher = more soluble; details: cell cycle stage: G1/S
HeLa Kyoto [4] = experiment: melting temperature (median over replicates), in situ; higher = more thermally stable
[5] = cell cycle stage: early G1 (4.5 h after nocodazole release)
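For melting temperature (median over replicates), in situ in this document: HeLa Kyoto cells synchronized by double thymidine or nocodazole block, proteins quantified by TMT10plex mass spectrometry, three independent biological replicates.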
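For solubility change mitosis vs G1/S (difference of NP-40 vs SDS log2 ratios) in this document: synchronized HeLa Kyoto cells (double thymidine block for G1/S, nocodazole release for mitosis), protein amounts in NP-40 versus SDS lysates quantified by mass spectrometry, three biological replicates.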
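For solubility in G1/S (NP-40 vs SDS abundance) in this document: HeLa Kyoto cells arrested at G1/S by double thymidine block, proteins quantified by TMT10plex mass spectrometry in mild NP-40 versus SDS extracts, three biological replicates.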
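For thermal stability score vs G1/S (z-score of summed log2 fold changes over temperatures) in this document: synchronized HeLa Kyoto cells, proteins quantified by TMT10plex mass spectrometry, three biological replicates, mitosis taken 0.5 h after nocodazole release, G1/S directly after double thymidine block.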

Sequence of NEK7 (chain, as listed by the source): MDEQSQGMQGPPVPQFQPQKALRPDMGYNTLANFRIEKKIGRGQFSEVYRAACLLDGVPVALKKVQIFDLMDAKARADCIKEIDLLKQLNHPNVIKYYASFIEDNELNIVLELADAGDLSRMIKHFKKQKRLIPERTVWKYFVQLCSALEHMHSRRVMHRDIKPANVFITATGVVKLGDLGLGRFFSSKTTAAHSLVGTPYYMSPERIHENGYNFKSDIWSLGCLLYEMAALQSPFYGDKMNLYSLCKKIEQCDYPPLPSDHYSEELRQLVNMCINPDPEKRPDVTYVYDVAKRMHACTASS
Sequence of RABGAP1 (chain, as listed by the source): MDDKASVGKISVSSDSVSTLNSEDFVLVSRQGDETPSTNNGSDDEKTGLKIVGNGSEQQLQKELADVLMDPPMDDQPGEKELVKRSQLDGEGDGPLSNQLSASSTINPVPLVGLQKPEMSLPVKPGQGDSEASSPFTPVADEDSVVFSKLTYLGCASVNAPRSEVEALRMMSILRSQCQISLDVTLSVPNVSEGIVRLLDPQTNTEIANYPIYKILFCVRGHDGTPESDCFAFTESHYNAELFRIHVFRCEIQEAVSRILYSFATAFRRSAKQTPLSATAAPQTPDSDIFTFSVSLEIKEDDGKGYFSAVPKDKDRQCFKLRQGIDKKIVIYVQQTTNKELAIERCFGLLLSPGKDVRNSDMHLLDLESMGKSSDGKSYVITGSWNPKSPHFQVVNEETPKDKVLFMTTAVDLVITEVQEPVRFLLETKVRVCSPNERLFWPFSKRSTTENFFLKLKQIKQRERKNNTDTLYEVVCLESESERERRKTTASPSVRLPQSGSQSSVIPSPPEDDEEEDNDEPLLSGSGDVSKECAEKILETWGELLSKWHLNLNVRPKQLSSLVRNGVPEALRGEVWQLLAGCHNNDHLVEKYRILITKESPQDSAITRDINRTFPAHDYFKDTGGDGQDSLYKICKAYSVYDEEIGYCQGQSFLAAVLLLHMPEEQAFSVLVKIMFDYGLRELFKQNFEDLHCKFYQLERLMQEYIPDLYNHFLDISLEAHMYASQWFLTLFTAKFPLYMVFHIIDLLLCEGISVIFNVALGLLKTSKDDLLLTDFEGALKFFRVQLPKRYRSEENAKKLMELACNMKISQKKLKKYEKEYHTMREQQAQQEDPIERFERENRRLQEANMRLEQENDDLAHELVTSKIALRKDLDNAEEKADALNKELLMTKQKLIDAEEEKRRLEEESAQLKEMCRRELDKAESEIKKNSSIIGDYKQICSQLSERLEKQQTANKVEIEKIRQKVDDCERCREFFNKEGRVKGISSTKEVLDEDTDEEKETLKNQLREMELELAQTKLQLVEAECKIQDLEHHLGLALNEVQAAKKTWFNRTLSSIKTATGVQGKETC

| Substance | thermal stability score (HeLa Kyoto [1]; [5]) | thermal stability score (HeLa Kyoto [1]; cell cycle stage: mitosis) | solubility change mitosis (log2) (HeLa Kyoto [2]) | solubility in G1/S (log2) (HeLa Kyoto [3]) | melting temperature (HeLa Kyoto [4]; cell cycle stage: G1/S) [°C] | melting temperature (HeLa Kyoto [4]; cell cycle stage: mitosis) [°C] |
| --- | --- | --- | --- | --- | --- | --- |
| NEK7 | 1.38 | 1.14 | -0.165 | 0.62 | 49.1 | 49.4 |
| MIWYILIIGILLPQSLAHPGFFTSIGQMTDLIHTEKDLVTSLKDYIKAEEDKLEQIKKWAEKLDRLTSTATKDPEGFVGHPVNAFKLMKRLNTEWSELENLVLKDMSDGFISNLTIQRQYFPNDEDQVGAAKALLRLQDTYNLDTDTISKGNLPGVKHKSFLTAEDCFELGKVAYTEADYYHTELWMEQALRQLDEGEISTIDKVSVLDYLSYAVYQQGDLDKALLLTKKLLELDPEHQRANGNLKYFEYIMAKEKDVNKSASDDQSDQKTTPKKKGVAVDYLPERQKYEMLCRGEGIKMTPRRQKKLFCRYHDGNRNPKFILAPAKQEDEWDKPRIIRFHDIISDAEIEIVKDLAKPRLRRATISNPITGDLETVHYRISKSAWLSGYENPVVSRINMRIQDLTGLDVSTAEELQVANYGVGGQYEPHFDFARKDEPDAFKELGTGNRIATWLFYMSDVSAGGATVFPEVGASVWPKKGTAVFWYNLFASGEGDYSTRHAACPVLVGNKWVSNKWLHERGQEFRRPCTLSELE [P4HA1] | 3.59 | 6.2 | -0.0564 | 0.216 | 55.3 | 54.1 |
| MTTSTLQKAIDLVTKATEEDKAKNYEEALRLYQHAVEYFLHAIKYEAHSDKAKESIRAKCVQYLDRAEKLKDYLRSKEKHGKKPVKENQSEGKGSDSDSEGDNPEKKKLQEQLMGAVVMEKPNIRWNDVAGLEGAKEALKEAVILPIKFPHLFTGKRTPWRGILLFGPPGTGKSYLAKAVATEANNSTFFSVSSSDLMSKWLGESEKLVKNLFELARQHKPSIIFIDEVDSLCGSRNENESEAARRIKTEFLVQMQGVGNNNDGTLVLGATNIPWVLDSAIRRRFEKRIYIPLPEEAARAQMFRLHLGSTPHNLTDANIHELARKTEGYSGADISIIVRDSLMQPVRKVQSATHFKKVCGPSRTNPSMMIDDLLTPCSPGDPGAMEMTWMDVPGDKLLEPVVCMSDMLRSLATTRPTVNADDLLKVKKFSEDFGQES [VPS4A] | 1.11 | 1.47 | -0.128 | 0.393 | 48.6 | 49.7 |
| MATNWGSLLQDKQQLEELARQAVDRALAEGVLLRTSQEPTSSEVVSYAPFTLFPSLVPSALLEQAYAVQMDFNLLVDAVSQNAAFLEQTLSSTIKQDDFTARLFDIHKQVLKEGIAQTVFLGLNRSDYMFQRSADGSPALKQIEINTISASFGGLASRTPAVHRHVLSVLSKTKEAGKILSNNPSKGLALGIAKAWELYGSPNALVLLIAQEKERNIFDQRAIENELLARNIHVIRRTFEDISEKGSLDQDRRLFVDGQEIAVVYFRDGYMPRQYSLQNWEARLLLERSHAAKCPDIATQLAGTKKVQQELSRPGMLEMLLPGQPEAVARLRATFAGLYSLDVGEEGDQAIAEALAAPSRFVLKPQREGGGNNLYGEEMVQALKQLKDSEERASYILMEKIEPEPFENCLLRPGSPARVVQCISELGIFGVYVRQEKTLVMNKHVGHLLRTKAIEHADGGVAAGVAVLDNPYPV [GSS] | -2.26 | -1.74 | -0.0933 | 0.238 | 58.6 | 58.6 |
| MTAEEMKATESGAQSAPLPMEGVDISPKQDEGVLKVIKREGTGTEMPMIGDRVFVHYTGWLLDGTKFDSSLDRKDKFSFDLGKGEVIKAWDIAIATMKVGEVCHITCKPEYAYGSAGSPPKIPPNATLVFEVELFEFKGEDLTEEEDGGIIRRIQTRGEGYAKPNEGAIVEVALEGYYKDKLFDQRELRFEIGEGENLDLPYGLERAIQRMEKGEHSIVYLKPSYAFGSVGKEKFQIPPNAELKYELHLKSFEKAKESWEMNSEEKLEQSTIVKERGTVYFKEGKYKQALLQYKKIVSWLEYESSFSNEEAQKAQALRLASHLNLAMCHLKLQAFSAAIESCNKALELDSNNEKGLFRRGEAHLAVNDFELARADFQKVLQLYPNNKAAKTQLAVCQQRIRRQLAREKKLYANMFERLAEEENKAKAEASSGDHPTDTEMKEEQKSNTAGSQSQVETEA [FKBP4] | 1.07 | 1.03 | -0.129 | 0.197 | 50 | 50.1 |
| MLLLPSAADGRGTAITHALTSASTLCQVEPVGRWFEAFVKRRNRNASASFQELEDKKELSEESEDEELQLEEFPMLKTLDPKDWKNQDHYAVLGLGHVRYKATQRQIKAAHKAMVLKHHPDKRKAAGEPIKEGDNDYFTCITKAYEMLSDPVKRRAFNSVDPTFDNSVPSKSEAKDNFFEVFTPVFERNSRWSNKKNVPKLGDMNSSFEDVDIFYSFWYNFDSWREFSYLDEEEKEKAECRDERRWIEKQNRATRAQRKKEEMNRIRTLVDNAYSCDPRIKKFKEEEKAKKEAEKKAKAEAKRKEQEAKEKQRQAELEAARLAKEKEEEEVRQQALLAKKEKDIQKKAIKKERQKLRNSCKTWNHFSDNEAERVKMMEEVEKLCDRLELASLQCLNETLTSCTKEVGKAALEKQIEEINEQIRKEKEEAEARMRQASKNTEKSTGGGGNGSKNWSEDDLQLLIKAVNLFPAGTNSRWEVIANYMNIHSSSGVKRTAKDVIGKAKSLQKLDPHQKDDINKKAFDKFKKEHGVVPQADNATPSERFEGPYTDFTPWTTEEQKLLEQALKTYPVNTPERWEKIAEAVPGRTKKDCMKRYKELVEMVKAKKAAQEQVLNASRAKK [DNAJC2] | 1.17 | 1.39 | -0.0365 | 0.0111 | 48.6 | 48.7 |
| MGKGDPKKPRGKMSSYAFFVQTCREEHKKKHPDASVNFSEFSKKCSERWKTMSAKEKGKFEDMAKADKARYEREMKTYIPPKGETKKKFKDPNAPKRPPSAFFLFCSEYRPKIKGEHPGLSIGDVAKKLGEMWNNTAADDKQPYEKKAAKLKEKYEKDIAAYRAKGKPDAAKKGVVKAEKSKKKKEEEEDEEDEEDEEEEEDEEDEDEEEDDDDE [HMGB1] | 3.27 | 2.58 | 0.257 | 0.464 | 55.4 | 54.4 |
| MTANRDAALSSHRHPGCAQRPRTPTFASSSQRRSAFGFDDGNFPGLGERSHAPGSRLGARRRAKTARGLRGHRQRGAGAGLSRPGSARAPSPPRPGGPENPGGVLSVELPGLLAQLARSFALLLPVYALGYLGLSFSWVLLALALLAWCRRSRGLKALRLCRALALLEDEERVVRLGVRACDLPAWVHFPDTERAEWLNKTVKHMWPFICQFIEKLFRETIEPAVRGANTHLSTFSFTKVDVGQQPLRINGVKVYTENVDKRQIILDLQISFVGNCEIDLEIKRYFCRAGVKSIQIHGTMRVILEPLIGDMPLVGALSIFFLRKPLLEINWTGLTNLLDVPGLNGLSDTIILDIISNYLVLPNRITVPLVSEVQIAQLRFPVPKGVLRIHFIEAQDLQGKDTYLKGLVKGKSDPYGIIRVGNQIFQSRVIKENLSPKWNEVYEALVYEHPGQELEIELFDEDPDKDDFLGSLMIDLIEVEKERLLDEWFTLDEVPKGKLHLRLEWLTLMPNASNLDKVLTDIKADKDQANDGLSSALLILYLDSARNLPSGKKISSNPNPVVQMSVGHKAQESKIRYKTNEPVWEENFTFFIHNPKRQDLEVEVRDEQHQCSLGNLKVPLSQLLTSEDMTVSQRFQLSNSGPNSTIKMKIALRVLHLEKRERPPDHQHSAQVKRPSVSKEGRKTSIKSHMSGSPGPGGSNTAPSTPVIGGSDKPGMEEKAQPPEAGPQGLHDLGRSSSSLLASPGHISVKEPTPSIASDISLPIATQELRQRLRQLENGTTLGQSPLGQIQLTIRHSSQRNKLIVVVHACRNLIAFSEDGSDPYVRMYLLPDKRRSGRRKTHVSKKTLNPVFDQSFDFSVSLPEVQRRTLDVAVKNSGGFLSKDKGLLGKVLVALASEELAKGWTQWYDLTEDGTRPQAMT [ESYT2] | 0.682 | 0.876 | -0.0587 | -0.095 | 51.2 | 51.5 |
| MVLADLGRKITSALRSLSNATIINEEVLNAMLKEVCTALLEADVNIKLVKQLRENVKSAIDLEEMASGLNKRKMIQHAVFKELVKLVDPGVKAWTPTKGKQNVIMFVGLQGSGKTTTCSKLAYYYQRKGWKTCLICADTFRAGAFDQLKQNATKARIPFYGSYTEMDPVIIASEGVEKFKNENFEIIIVDTSGRHKQEDSLFEEMLQVANAIQPDNIVYVMDASIGQACEAQAKAFKDKVDVASVIVTKLDGHAKGGGALSAVAATKSPIIFIGTGEHIDDFEPFKTQPFISKLLGMGDIEGLIDKVNELKLDDNEALIEKLKHGQFTLRDMYEQFQNIMKMGPFSQILGMIPGFGTDFMSKGNEQESMARLKKLMTIMDSMNDQELDSTDGAKVFSKQPGRIQRVARGSGVSTRDVQELLTQYTKFAQMVKKMGGIKGLFKGGDMSKNVSQSQMAKLNQQMAKMMDPRVLHHMGGMAGLQSMMRQFQQGAAGNMKGMMGFNNM [SRP54] | 0.232 | 0.227 | 0.157 | 0.193 | 52 | 50.4 |
| MWPQPRLPPRPAMSEETRQSKLAAAKKKLREYQQRNSPGVPTGAKKKKKIKNGSNPETTTSGGCHSPEDTPKDNAATLQPSDDTVLPGGVPSPGASLTSMAASQNHDADNVPNLMDETKTFSSTESLRQLSQQLNGLVCESATCVNGEGPASSANLKDLESRYQQLAVALDSSYVTNKQLNITIEKLKQQNQEITDQLEEEKKECHQKQGALREQLQVHIQTIGILVSEKAELQTALAHTQHAARQKEGESEDLASRLQYSRRRVGELERALSAVSTQQKKADRYNKELTKERDALRLELYKNTQSNEDLKQEKSELEEKLRVLVTEKAGMQLNLEELQKKLEMTELLLQQFSSRCEAPDANQQLQQAMEERAQLEAHLGQVMESVRQLQMERDKYAENLKGESAMWRQRMQQMSEQVHTLREEKECSMSRVQELETSLAELRNQMAEPPPPEPPAGPSEVEQQLQAEAEHLRKELEGLAGQLQAQVQDNEGLSRLNREQEERLLELERAAELWGEQAEARRQILETMQNDRTTISRALSQNRELKEQLAELQSGFVKLTNENMEITSALQSEQHVKRELGKKLGELQEKLSELKETVELKSQEAQSLQQQRDQYLGHLQQYVAAYQQLTSEKEVLHNQLLLQTQLVDQLQQQEAQGKAVAEMARQELQETQERLEAATQQNQQLRAQLSLMAHPGEGDGLDREEEEDEEEEEEEAVAVPQPMPSIPEDLESREAMVAFFNSAVASAEEEQARLRGQLKEQRVRCRRLAHLLASAQKEPEAAAPAPGTGGDSVCGETHRALQGAMEKLQSRFMELMQEKADLKERVEELEHRCIQLSGETDTIGEYIALYQSQRAVLKERHREKEEYISRLAQDKEEMKVKLLELQELVLRLVGDRNEWHGRFLAAAQNPADEPTSGAPAPQELGAANQQGDLCEVSLAGSVEPAQGEAREGSPRDNPTAQQIMQLLREMQNPRERPGLGSNPCIPFFYRADENDEVKITVI [GOLGA2] | 1.74 | 3.29 | 0.0669 | 0.522 | 48.9 | 48.9 |
| RABGAP1 | -0.113 | -0.37 | -0.111 | -0.122 | 50.9 | 50.5 |
